In US20140234211A1 (INVECTORS S R L, published 2014):
Y(DOTA) = not defined here; Y(DTPA) = not defined here; AhOh = not defined here; Peg27 = L1, H-Peg27-OH

Molecular target: T1, GRP receptor overexpressed on PC-3 cells (UniProt P30550 1-384)
T1 construct: whole, on cells; also called GRP receptors
Assay: 111In-labelled liposomes on PC-3 cells overexpressing the GRP receptor; cell-bound radioactivity by gamma counting
Description: On the day of the experiment, the cell medium is removed, the cells are washed two times with fresh medium (DMEM with 1% of foetal bovine serum, pH 7.4) and incubated for at least one hour at 37° C. The cells were incubated (in triplicate) with 100 μL of liposomes labelled with indium 111/natural indium at various times (30 mins, 1 hour, 2 hours, 4 hours). The final volume is 1 mL and the final liposomal concentration is 2*10⁻⁴M. At the end of the incubation, the cell medium, containing the unbound radioactivity, is separated from the cells.
The radioactivity bound to the cells was recovered by tryptic digestion after two rapid washes with […] PBS followed by 1 hour of incubation and measured by gamma counting. The difference in binding of the liposomes containing H-L₁-Y(C)-L₂-P with the bombesin peptide, compared to when the peptide is absent, is clearly visible in FIG. 2. Experiments were conducted with various type (1) monomers in the liposomal formulation, varying the peptide sequences and the chelating agent, such as those described in examples 1a-1o. No substantial differences are found in the target selective binding properties. For example, in FIG. 2 the result for the liposomes containing monomer 1a is reported.

T1 sequence (P30550 whole entry): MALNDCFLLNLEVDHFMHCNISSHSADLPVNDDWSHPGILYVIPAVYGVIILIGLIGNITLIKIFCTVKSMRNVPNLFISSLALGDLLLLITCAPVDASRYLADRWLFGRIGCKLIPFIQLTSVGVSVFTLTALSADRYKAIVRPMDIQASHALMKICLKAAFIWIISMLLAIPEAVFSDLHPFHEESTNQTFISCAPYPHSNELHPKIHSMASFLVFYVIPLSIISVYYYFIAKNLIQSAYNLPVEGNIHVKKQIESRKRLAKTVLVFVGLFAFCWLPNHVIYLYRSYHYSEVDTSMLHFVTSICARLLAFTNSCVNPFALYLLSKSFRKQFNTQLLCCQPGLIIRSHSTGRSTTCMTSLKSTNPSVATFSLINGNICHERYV

Binder | binding result
{Peg27-Y(DOTA)-AhOh}-QWAVGHLM-NH2 (reading uncertain; also: in liposomes, Chelating agent DOTA; Tested in 111In-labelled liposomes) | binds
{Peg27-Y(DTPA)-AhOh}-QWAVGHLM-NH2 (reading uncertain; also: in liposomes, Tested in 111In-labelled liposomes) | binds
QWAVGHLX (not fully specified; Nle at position 8; C-terminal amide (NH2); N-terminal amino group amide-linked to spacer L2 (H-AhOh-OH), Chelating agent DOTA; Tested in 111In-labelled liposomes) | binds
QWAVGHLX (not fully specified; Nle at position 8; C-terminal amide (NH2); N-terminal amino group amide-linked to spacer L2 (H-AhOh-OH) of the lipid/DTPA monomer, also called monomer 1a) | binds
